We go through 1 molecule from US20240034787A1 (TOKYO UNIVERSITY OF PHARMACY AND LIFE SCIENCES, published 2024).

This test deals with T1, LRP1 of rat retinal ganglion cells (rat, UniProt G3V928 20-4545).
T1 construct: Endogenous LRP1 in the rat retina (ganglion cell layer); also called LRP1 on retinal ganglion cells
Kind of test: fluorescent immunostaining of rat retina sections after intravitreal administration (colocalisation in the ganglion cell layer). As for the experimental part: Frozen specimen preparation and immunofluorescence staining of rat eyeballs were performed in the following procedures. [0212] (1) Thinly sliced sections were prepared in the same manner as in the HE staining method. [0213] (2) 15% blocking buffer (in PBS, goat 15% serum, 0.05% Tween 20) was added and reacted at room temperature for one hour. [0214] (3) Washing was performed with PBS for 15 minutes. [0215] (4) A Primary antibody ([…] in 1% blocking buffer) was added and incubated overnight at 4° C. [0216] (5) Washing was performed with PBS for 15 minutes. [0217] (6) A secondary antibody (Alexa Fluor 488-bound goat anti-rabbit IgG (dilution 1:500, Invitrogen)) and Alexa Fluor 594-bound goat anti-human IgG (dilution 1:500, Invitrogen)) were added and reacted at room temperature for one hour. [0218] (7) Washing was performed with PBS containing Heochst33342 (1:2000 dilution) for one minute. [0219] (8) After encapsulation, observation was performed with a fluorescence microscope.
In the above experiment, it was observed by fluorescent immunostaining whether C2-D11 IgG binds to LRP1 of retinal ganglion cells after being administered into the vitreous body of rats. […] On the other hand, it was shown that the anti-OVA antibody was not colocalized.

T1 sequence (G3V928 20-4545 limits assumed): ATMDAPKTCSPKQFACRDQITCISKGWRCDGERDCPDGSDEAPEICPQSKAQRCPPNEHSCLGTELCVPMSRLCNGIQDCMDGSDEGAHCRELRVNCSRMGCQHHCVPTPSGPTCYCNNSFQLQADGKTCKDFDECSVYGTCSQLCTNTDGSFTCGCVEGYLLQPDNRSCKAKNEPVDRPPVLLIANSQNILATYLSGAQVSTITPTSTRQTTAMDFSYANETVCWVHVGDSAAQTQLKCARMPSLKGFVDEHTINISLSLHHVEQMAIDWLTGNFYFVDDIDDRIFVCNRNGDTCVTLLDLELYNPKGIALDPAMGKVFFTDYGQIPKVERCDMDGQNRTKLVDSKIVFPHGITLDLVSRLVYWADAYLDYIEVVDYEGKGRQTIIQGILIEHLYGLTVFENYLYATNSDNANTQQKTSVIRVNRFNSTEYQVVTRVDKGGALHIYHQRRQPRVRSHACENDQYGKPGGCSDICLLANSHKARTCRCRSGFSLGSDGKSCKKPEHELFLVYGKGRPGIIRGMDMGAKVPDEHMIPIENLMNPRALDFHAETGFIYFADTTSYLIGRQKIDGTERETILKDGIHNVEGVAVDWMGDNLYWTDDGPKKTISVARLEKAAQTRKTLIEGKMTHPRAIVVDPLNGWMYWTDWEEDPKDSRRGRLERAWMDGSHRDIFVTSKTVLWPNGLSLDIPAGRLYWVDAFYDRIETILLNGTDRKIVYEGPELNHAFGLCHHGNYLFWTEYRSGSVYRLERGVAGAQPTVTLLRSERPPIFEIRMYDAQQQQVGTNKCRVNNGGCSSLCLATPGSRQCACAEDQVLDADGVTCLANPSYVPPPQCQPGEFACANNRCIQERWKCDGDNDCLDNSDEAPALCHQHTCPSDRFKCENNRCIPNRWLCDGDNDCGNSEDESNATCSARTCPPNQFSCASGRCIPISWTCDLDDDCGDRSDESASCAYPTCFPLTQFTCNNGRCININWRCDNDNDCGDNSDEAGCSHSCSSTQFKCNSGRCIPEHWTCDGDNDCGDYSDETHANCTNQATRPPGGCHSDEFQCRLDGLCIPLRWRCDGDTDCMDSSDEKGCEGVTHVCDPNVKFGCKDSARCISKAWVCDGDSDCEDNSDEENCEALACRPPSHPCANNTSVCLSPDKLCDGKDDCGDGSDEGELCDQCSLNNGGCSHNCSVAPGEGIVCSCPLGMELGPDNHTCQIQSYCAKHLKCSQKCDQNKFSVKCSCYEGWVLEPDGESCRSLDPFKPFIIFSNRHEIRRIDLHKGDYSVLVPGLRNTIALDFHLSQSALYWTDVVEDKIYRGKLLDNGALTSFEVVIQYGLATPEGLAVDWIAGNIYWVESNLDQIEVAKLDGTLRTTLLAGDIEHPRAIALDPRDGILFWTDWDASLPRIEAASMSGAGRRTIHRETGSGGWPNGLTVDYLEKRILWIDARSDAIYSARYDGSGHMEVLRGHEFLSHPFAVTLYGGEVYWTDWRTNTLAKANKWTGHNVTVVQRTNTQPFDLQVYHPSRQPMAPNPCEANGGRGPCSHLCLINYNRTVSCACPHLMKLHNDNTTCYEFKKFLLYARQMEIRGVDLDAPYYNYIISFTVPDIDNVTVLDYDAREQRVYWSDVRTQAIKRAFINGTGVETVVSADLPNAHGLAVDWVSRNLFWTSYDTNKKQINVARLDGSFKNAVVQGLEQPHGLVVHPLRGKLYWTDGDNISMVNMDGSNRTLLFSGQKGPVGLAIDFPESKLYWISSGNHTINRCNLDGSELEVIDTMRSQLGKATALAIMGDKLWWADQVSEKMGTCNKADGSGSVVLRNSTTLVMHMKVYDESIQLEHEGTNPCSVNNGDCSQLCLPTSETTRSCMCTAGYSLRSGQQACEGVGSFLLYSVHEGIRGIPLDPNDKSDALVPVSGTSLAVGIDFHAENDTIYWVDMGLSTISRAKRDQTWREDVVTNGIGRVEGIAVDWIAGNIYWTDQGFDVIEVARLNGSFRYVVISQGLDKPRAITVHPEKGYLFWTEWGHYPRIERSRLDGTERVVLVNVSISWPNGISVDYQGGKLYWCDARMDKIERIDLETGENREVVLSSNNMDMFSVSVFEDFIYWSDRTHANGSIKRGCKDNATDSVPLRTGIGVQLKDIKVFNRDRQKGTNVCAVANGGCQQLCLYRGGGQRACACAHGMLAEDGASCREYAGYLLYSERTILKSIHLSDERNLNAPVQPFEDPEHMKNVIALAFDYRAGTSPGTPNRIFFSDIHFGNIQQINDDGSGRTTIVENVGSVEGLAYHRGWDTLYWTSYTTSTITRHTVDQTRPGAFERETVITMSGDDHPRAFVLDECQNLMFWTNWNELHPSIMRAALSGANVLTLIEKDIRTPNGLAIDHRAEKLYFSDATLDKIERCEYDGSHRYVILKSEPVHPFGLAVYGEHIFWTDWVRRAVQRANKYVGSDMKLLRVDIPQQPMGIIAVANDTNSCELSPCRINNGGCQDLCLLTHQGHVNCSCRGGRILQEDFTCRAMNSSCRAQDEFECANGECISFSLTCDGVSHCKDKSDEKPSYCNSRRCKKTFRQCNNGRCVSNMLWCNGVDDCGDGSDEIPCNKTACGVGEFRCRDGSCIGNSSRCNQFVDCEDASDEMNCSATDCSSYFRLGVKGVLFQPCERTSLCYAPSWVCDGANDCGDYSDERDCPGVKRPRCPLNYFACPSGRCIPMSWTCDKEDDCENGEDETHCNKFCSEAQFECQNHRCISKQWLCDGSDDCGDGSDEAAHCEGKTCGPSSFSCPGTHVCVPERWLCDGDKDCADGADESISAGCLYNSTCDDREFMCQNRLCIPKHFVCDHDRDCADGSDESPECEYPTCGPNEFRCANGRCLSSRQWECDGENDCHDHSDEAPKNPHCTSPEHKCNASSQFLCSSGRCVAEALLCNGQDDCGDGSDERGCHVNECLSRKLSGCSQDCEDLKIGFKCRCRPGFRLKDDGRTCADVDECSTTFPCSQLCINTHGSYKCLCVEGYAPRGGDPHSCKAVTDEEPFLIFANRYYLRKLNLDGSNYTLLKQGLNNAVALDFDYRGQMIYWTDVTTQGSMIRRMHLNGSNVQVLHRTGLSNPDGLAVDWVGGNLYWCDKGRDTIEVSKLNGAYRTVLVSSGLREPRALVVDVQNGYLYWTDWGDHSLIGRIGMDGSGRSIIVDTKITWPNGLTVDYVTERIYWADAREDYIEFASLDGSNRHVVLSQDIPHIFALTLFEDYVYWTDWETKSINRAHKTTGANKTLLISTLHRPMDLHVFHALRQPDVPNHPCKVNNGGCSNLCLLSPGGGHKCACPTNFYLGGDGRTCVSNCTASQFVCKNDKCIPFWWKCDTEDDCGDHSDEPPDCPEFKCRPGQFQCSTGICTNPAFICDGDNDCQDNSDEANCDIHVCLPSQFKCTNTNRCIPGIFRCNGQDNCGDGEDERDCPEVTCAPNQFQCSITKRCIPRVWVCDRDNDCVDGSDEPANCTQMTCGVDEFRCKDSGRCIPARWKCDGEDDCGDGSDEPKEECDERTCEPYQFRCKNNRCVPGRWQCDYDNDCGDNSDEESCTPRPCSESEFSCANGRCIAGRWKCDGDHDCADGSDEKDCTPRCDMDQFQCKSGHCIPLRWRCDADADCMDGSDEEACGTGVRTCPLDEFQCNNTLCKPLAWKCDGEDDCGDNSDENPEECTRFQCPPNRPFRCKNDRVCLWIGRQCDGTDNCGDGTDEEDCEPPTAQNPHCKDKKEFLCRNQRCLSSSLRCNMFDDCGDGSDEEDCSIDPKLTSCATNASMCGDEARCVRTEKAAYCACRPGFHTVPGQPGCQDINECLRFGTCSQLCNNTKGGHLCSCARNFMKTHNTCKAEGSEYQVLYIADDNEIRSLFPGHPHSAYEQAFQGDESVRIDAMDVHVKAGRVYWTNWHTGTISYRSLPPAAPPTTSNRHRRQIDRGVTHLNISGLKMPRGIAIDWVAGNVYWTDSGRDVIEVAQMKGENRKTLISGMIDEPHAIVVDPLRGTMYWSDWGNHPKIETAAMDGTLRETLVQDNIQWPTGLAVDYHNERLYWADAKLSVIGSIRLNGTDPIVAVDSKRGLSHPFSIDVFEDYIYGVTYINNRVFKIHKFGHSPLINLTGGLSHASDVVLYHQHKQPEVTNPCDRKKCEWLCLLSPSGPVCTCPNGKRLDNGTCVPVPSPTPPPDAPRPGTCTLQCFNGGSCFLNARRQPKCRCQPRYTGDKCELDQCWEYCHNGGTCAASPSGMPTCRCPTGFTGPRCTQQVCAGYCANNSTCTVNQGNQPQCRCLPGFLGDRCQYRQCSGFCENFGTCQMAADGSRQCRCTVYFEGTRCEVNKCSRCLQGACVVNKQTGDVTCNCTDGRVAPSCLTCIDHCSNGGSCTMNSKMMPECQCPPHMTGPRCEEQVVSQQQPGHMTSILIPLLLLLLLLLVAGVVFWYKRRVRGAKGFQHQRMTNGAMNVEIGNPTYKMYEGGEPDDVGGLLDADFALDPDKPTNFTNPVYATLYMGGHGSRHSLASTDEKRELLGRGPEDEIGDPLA

B1: anti-LRP1 human IgG1 antibody prepared from C2_D11 (antibody, V domains shown)
VH: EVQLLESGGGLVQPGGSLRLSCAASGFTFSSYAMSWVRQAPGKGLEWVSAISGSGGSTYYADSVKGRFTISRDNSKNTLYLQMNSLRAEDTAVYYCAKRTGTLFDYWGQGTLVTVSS
VL: SSELTQDPAVSVALGQTVRITCQGDSLRSYYASWYQQKPGQAPVLVIYGKNNRPSGIPDRFSGSSSGNTASLTITGAQAEDEADYYCNSSQAQRNAVVFGGGTKLTVLG
notes: VH and VL of C2_D11 were put into expression vectors with a human IgG1 Fc region and expressed in HEK-293; also called C2-D11 IgG; human C2-D11 IgG
Consider B1, for which the binding result was “binds”.
